# Assay results as given in article PMC8998802 (2019).
# T1: CaV1.1 AID peptide AID (UniProt Q13698)
# T1 chain: QQLDEDLRGYMSWITQGE
# T2: CaV2.1 AID peptide AID (UniProt O00555)
# T2 chain: QQIERELNGYMEWISKAE
# T3: CaV2.2 AID peptide AID (UniProt Q00975, IPPQ present)
# T3 chain: QQIERELNGYLEWIFKAE
# T4: CaV1.1 AID peptide AID (UniProt Q13698, IPPQ present)
# T4 chain: QQLDEDLRGYMSWITQGE
# T5: CaV2.1 AID peptide AID (UniProt O00555, IPPQ present)
# T5 chain: QQIERELNGYMEWISKAE
# T6: CaV2.2 AID peptide AID (UniProt Q00975)
# T6 chain: QQIERELNGYLEWIFKAE
# Assays:
# Experiment in all cases: microscale thermophoresis
# [1] = molecular target: T1, CaV1.1 AID peptide AID
# [2] = molecular target: T2, CaV2.1 AID peptide AID
# [3] = molecular target: T3, CaV2.2 AID peptide AID
# [4] = molecular target: T4, CaV1.1 AID peptide AID
# [5] = molecular target: T5, CaV2.1 AID peptide AID
# [6] = molecular target: T6, CaV2.2 AID peptide AID
binder,measurement,setting,value
CaVβ2 (protein) not shown,Kd,[1],24 nM
same,Kd,[2],18.3 nM
same,Kd,[3],208 nM
same,Kd,[4],51 nM
same,Kd,[5],93 nM
same,Kd,[6],12 nM
